{"source": "patent US7589065", "key": {"Ala-Ala-Tyr-Ala-Ala": {"system": "T1, Ala-Ala-Tyr-Ala-Ala", "T1 sequence": "AAYAA"}, "DnaK (Escherichia coli)": {"molecular_target": "DnaK (Escherichia coli) (UniProt P0A6Y8)", "sequence (P0A6Y8 2-638 limits assumed)": "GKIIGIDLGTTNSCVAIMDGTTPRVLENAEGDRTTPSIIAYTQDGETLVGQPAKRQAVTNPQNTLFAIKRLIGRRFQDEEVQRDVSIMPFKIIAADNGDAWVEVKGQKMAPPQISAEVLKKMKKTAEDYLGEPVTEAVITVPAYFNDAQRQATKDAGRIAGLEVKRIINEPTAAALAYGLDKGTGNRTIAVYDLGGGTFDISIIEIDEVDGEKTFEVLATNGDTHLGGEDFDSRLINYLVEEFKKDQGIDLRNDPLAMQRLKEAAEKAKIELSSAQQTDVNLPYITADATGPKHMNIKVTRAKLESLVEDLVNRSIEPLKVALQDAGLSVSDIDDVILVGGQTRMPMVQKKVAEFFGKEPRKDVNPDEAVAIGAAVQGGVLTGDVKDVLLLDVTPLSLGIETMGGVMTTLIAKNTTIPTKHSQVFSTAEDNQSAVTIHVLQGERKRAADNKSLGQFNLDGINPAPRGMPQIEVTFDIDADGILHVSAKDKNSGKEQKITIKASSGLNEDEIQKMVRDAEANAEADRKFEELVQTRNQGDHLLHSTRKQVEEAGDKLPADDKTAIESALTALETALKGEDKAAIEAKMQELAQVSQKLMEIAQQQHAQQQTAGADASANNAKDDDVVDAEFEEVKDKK", "assay": "cell-based or functional assay"}}}
{"substance": "FKBP12", "values": [{"measurement": "relative intensity of the cross signal of the Ala-Tyr peptide bond (no addition: 3.50 ± 0.51) (relative intensity)", "setting": "Ala-Ala-Tyr-Ala-Ala", "result": 3.94}, {"measurement": "relative intensity of the cross signal of the Tyr-Ala peptide bond (no addition: 3.89 ± 0.32) (relative intensity)", "setting": "Ala-Ala-Tyr-Ala-Ala", "result": 2.68}]}
{"substance": "substance P (peptide)", "values": [{"measurement": "IC50 of the inhibition of the APIase activity of DnaK (spectrophotometric Ala-Leu assay)", "setting": "DnaK (Escherichia coli)", "result": 76, "unit": "µM"}]}
